In patent US20100261218A1:

T1: Synechocystis sp. PCC6803 fatty acid synthesis acyl carrier protein (SACP), P20804
T1 chain: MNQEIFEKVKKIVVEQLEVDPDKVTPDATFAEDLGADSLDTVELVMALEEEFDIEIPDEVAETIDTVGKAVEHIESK


Key:
[1] = target: N. punctiforme ATCC29133 PKS aryl carrier protein (ArCP) from HetM of glycolipid synthesis (NpArCP)
[2] = target: Nostoc punctiforme NRPS peptidyl carrier protein (Nppcp), C-terminal NosA PCP of the putative nostopeptolide cluster
[3] = target: N. punctiforme ATCC29133 PKS acyl carrier protein of nostopeptolide biosynthesis (NpACP)
[4] = target: T1, Synechocystis sp. PCC6803 fatty acid …
[5] = target: Bacillus brevis ATCC8185 NRPS peptidyl carrier protein involved in tyrocidine biosynthesis (TycPCP)

Row | Protein | pantetheinylation of the carrier protein (30 min in vitro assay, ESI-MS) [1] | pantetheinylation of the carrier protein (30 min in vitro assay, ESI-MS) [2] | phosphopantetheinylation of the carrier protein (30 min in vitro assay, ESI-MS) [3] | phosphopantetheinylation of the carrier protein (30 min in vitro assay, ESI-MS) [1] | phosphopantetheinylation of the carrier protein (10 min in vitro assay, ESI-MS, +340 Da) [4] | percent of carrier protein phosphopantetheinylated (30 min in vitro assay, ESI-MS) [5]
1 | N. sp. heterocyst carrier protein synthase (NhcS), phosphopantetheinyl transferase from Nodularia spumigena NSOR10 (protein) MTALNHLWLPVPTNLTLLPNDVHIWRIHLDVPEAQQQNLLATLSGDELTRANRFHFQEHRQRFIAGRGILRSILGSYLGIEPQRVLFDYQERGKPILADSLAKSGLWFNLSHSQGLALCAVNYHNRIGIDLEYIRRMSDVEALAKRFFLPREYDVVRSLSDHQQQEIFFRYWTCKEAYLKATGEGLAQLEQVEVLLNPTEPAQLQTSESWSLFELRAAEDYFAAVVVEGSGCNLQCWQY | The conversion of the apo-ArCP (15.75 kDa) to the holo-ArCP (16.05 kDa) is seen | Nppcp was pantetheinylated | – | – | – | –
2 | Synechocystis sp. PCC6803 phosphopantetheinyl transferase (Sppt) (protein) MLPQPQIWLCPTDRPLIPGYQALLSSEEMARGERYQRPQDKQRFLTMRLALRILLARQLDCLPQQLQFTYGPQGKPELVDRERRSPWFNVAHSGNYGLIGLSTEGEIGVDLQIMLPKPHYLKLAKRFFAPQEVQQLESLEGEKRTKLFYQLWTAKEAFLKATGKGISGGLNQVIPDENLAKYQYLPDSGDTNHWRLSSQPLLADQGSNDNYWMAIAWCTNEVNQVESNYLPNIQPFQWPRNLDSLP | – | – | Phosphopantetheinylated NpACP was not reproducibly detected after incubation with Sppt | Sppt was unable to phosphopantetheinylate the N. punctiforme ATCC29133 NpArCP as shown by mass spectrometry | After in vitro incubation with Sppt, SACP showed an increased abundance of phosphopantetheinylated carrier protein | approximately 54% of the P. aeruginosa PAO1 NRPS TycPCP was phosphopantetheinylated by Sppt
